Entries after “also recorded” stand apart in the source; their conditions may differ.
What was measured:
[1] = system: bone marrow-derived monocytes (BMMs); assay: TRAP analysis of osteoclastogenesis induced by RANKL variants in BMMs; type: cell-based, mouse; settings: RANKL-treated primary BMM
Experimental: The RANKL-RANK binding sites are K180, D189, R190, H223, H224, which are conserved between humans and mice. We selected 4 mutant RANKLs to be purified. Their size corresponded to the wild type RANKL (39 kDa) (FIG. 2B). Tartrate-resistant acid […] (TRAP) activity was absent for all RANKLs even at 150 ng/mL (FIG. 2C, D).
4-week old male BALB/c mice were purchased from Orient Bio (Gwangju, Korea) and kept in an animal facility approved by the Chosun University Animal Management Committee (IACUC2017-A0002). After obtaining bone marrow cells from mice, bone marrow mononuclear cells were seeded into 96-well plates (1 Y 10^4 cells/well), and in the absence or presence of various concentrations of compounds, incubated with M-CSF (100 ng/mL) overnight before stimulation with RANKL (50 ng/well). The medium was replaced every other days. 6 days later, the cells were fixed with 4% paraformaldehyde, permeated in 0.1% Triton X-100, and washed with PBS. Then, TRAP activity (Sigma-Aldrich, St. Louis, Mo., USA) staining was performed. TRAP-positive multinuclear cells containing 5 or more nuclei were counted as osteoclasts.
To evaluate the effect of mtRANKL on osteoclastogenesis, TRAP analysis was performed on RANKL-treated primary bone marrow-derived macrophages (BMM) by the method described in Reference Example 2, and the results are shown in FIGS. 4B and 4C.

wtRANKL-induced mouse = assay: mtRANKL immunization in wtRANKL-induced osteoporosis mice, micro-CT; type: in vivo
Experimental: (§1) The right femur of each mouse subjected to each experiment was incised and CT imaging was performed using a Quantum GX pCT imaging system (PerkinElmer, Hopkinton, Mass., USA) located at the Korea Basic Science Institute in Gwangju. As for the X-ray source, the field of view was set to 45 mm, 90 kV and […] (voxel size, 90 μm; scanning time, 14 minutes). CT imaging was performed using a Quantum GX 3D Viewer software. After scanning, image segmentation was performed in Analyze (AnalyzeDirect, Overland Park, Kans., USA). Briefly, the legs were segmented using semi-automatic and manual tools (e.g., object extractor, area expansion, and object separator) using volume editing tools. Then, a 3D rendering of the leg was created, and bone mineral density (BMD), bone volume (BV), bone volume percentage (%), and trabecular thickness were calculated using the ROI tools.
(§2) 17-week-old […] BALB/c mice were equally divided into 3 groups. The group was divided into a negative control group in which PBS was intraperitoneally injected, a group in which only wtRANKL was injected, and a group in which wtRANKL was injected after immunization with mtRANKL for 52 days. mtRANKL was injected after mixing with an aluminum hydroxide adjuvant. The immunization process started with 1st immunization of mtRANKL at 52 days, 2nd immunization at 39 days, 3rd immunization at 14 days each before injection of wtRANKL, and a total of 3 immunizations was performed. The amount of mtRANKL was 0.2 mg per mouse.
(§3) After 52 days, PBS was injected into the negative control group and wtRANKL was injected into the other two groups. Next day, wtRANKL was injected once more. wtRANK was subcutaneously injected (2.0 mg/kg). Serum was collected to determine the titer of anti-RANKL antibody. Then, after extracting tibias, the adhesive soft tissues of tibias were removed.
To examine whether RANKL has a bone destruction effect when RANKL was injected after immunization with mtRANKL, micro-CT analysis was performed by the method of Reference Example 6.

BMMs [2] = assay: F-actin ring formation assay; type: cell-based, mouse; settings: mRANKL-MT3 150 ng/mL
Experimental: (§4) We used bone-resorption and F-actin ring formation assays to investigate osteoclast activity. To observe bone resorption in vitro, BMMs were cultured in Corning Osteo Assay Surface 96-well Multiple Well Plates (Sigma) with 30 ng/mL M-CSF and 75 ng/mL sRANKL (soluble RANKL; R&D Systems) or isolated RANKL for 6 days. Then, the plates were washed with pure water. To monitor actin ring formation, BMMs were grown on glass slides. After culture, the cells were fixed with 4% formalin, permeabilized with 0.5% Triton X100 in PBS for 5 min at room temperature, and incubated with 0.5 mg/mL TRITC-labelled phalloidin for 30 min. The cells were then rinsed with PBS. F-actin rings were visualized using a fluorescence ECLIPSE Ts2R microscope (Nikon, Tokyo, Japan).

BMMs [3] = assay: Bone-resorption assay (Osteo Assay Surface plates); type: cell-based, mouse; settings: 6 days, mRANKL-MT3 150 ng/mL
Experimental: as §4

BALB/c mice = assay: Bone destruction by injected mtRANKL, micro-CT; type: in vivo, mouse; settings: subcutaneous 1.0 mg/kg three times a week
Experimental: as §1
To investigate the bone-destructive effect of mtRANKL, 4-week-old male BALB/c mice (Orient Bio) were placed in a cage capable of accommodating up to 4 animals in a light-controlled environment ([…]) and provided with autoclaved water and both whole and powdered rodent diet (Purina, St. Louis, Mo., USA). Starting from 6 weeks of age, 9 mice were randomly divided into three groups, and each group was subcutaneously injected with wild-type RANKL (Amgen, Thousand Oaks, Calif., USA), mtRANKL purified in Reference Example 2, and saline three times a week (1.0 mg/kg). The trabecular bone in femoral neck was examined by Micro-CT analysis described in Reference Example 6.

RANK and LGR4 signaling [4] = assay: Western blots of RANK and LGR4 signaling pathway proteins, RANKL variants; type: cell-based, mouse; settings: BMMs, Western blot
Experimental: Proteins were separated by SDS-PAGE and electropermeated into a nitrocellulose membrane (Bio-Rad). After blocking the membrane with 5% (weight/volume) skim milk in TBST [10 mM Tris (pH 7.5), 150 mM NaCl, 0.1% (vol/vol) Tween 20], each mouse serum for primary antibody in the blocking solution was examined. The membrane was washed three times with Tris buffered saline. […] peroxidase (HRP)-conjugated secondary antibody was diluted 1:5000 with TBST in 1% (wt/vol) skim milk powder. ECL_system (Amersham Pharmacia Biotech) was used as the membrane.
Primary antibodies: AKT (Cell Signaling Technology, 1:1000), phospho-AKT (Cell Signaling Technology, #9271S, 1:1000), p38 (Cell Signaling Technology, 9212S, 1:1000), phospho-p38 (Cell Signaling Technology, #9211S, 1:1000), ERK (Cell Signaling Technology, 9102S, 1:1000), phospho-ERK (Cell Signaling Technology, #9101S, 1:1000), JNK (Cell Signaling Technology, 9252S, 1:1000), phosphoJNK (Cell Signaling Technology, #9251S, 1:1000), GSK-3β (Cell Signaling Technology, 9315S, 1:1000), phosphoGSK-3β (Cell Signaling Technology, #9336S, 1:1000), Src (Cell Signaling Technology, 2108S, 1:1000), phosphoSrc (Cell Signaling Technology, #2105S, 1:1000), NF-KB p65 (Cell Signaling Technology, #3034, 1:1000), phosphop65 (Cell Signaling Technology, #3031, 1:1000), RANK (Cell Signaling Technology, 4845S, 1:1000), Gaq (Cell Signaling Technology, 14373S, 1:1000), LGR4 (MyBioSource, MBS468030, 1:500), 20112360C-1, and GAPDH (Santa-Cruz Biotechnology, 1:2500).
To investigate the interaction of mRANKL variants and RANK, the co-immunoprecipitation (Co-IP) assays were carried out using mRANKL-WT/mRANKL-MT3 and RANK/LGR4 (FIG. 12A). In addition, wild-type RANKL induced MAPK, AKT, NF-κB p65, and GSK-3 phosphorylation, which is involved in LGR4 signaling (FIG. 12B).

RANKL = assay: ELISA of serum RANKL levels; type: in vivo, mouse; settings: wtRANKL 2.0 mg/kg s.c. to non-immunized mice, or to mice immunized with mtRANKL
Experimental: A commercially available enzyme immunoassay kit (R & D Systems, Minn., USA) was used to measure RANKL levels in the serum of mice according to the manufacturer's protocol. Absorbance (450 nm) was measured in a colorimetric microplate reader (BioTek, Winooski, USA). The reading of the absorbance was then subtracted from the reading at 570 nm.
as §2, §3

sRANKL-induced mice = assay: Anti-RANKL IgGs in sRANKL-induced mice; type: in vivo, mouse
RANK and LGR4 signaling [5] = assay: Anti-RANKL on RANK and LGR4 signaling in BMMs; type: cell-based, mouse; settings: Western blot, sRANKL
Experimental: Proteins were separated by SDS-PAGE and electropermeated into a nitrocellulose membrane (Bio-Rad). After blocking the membrane with 5% (weight/volume) skim milk in TBST [10 mM Tris (pH 7.5), 150 mM NaCl, 0.1% (vol/vol) Tween 20], each mouse serum for primary antibody in the blocking solution was examined. The membrane was washed three times with Tris buffered saline. […] peroxidase (HRP)-conjugated secondary antibody was diluted 1:5000 with TBST in 1% (wt/vol) skim milk powder. ECL_system (Amersham Pharmacia Biotech) was used as the membrane. […]
We verified that anti-RANKL suppressed RANK and LGR4 signaling in a time-dependent manner (FIG. 13A). […] In addition, NFATc1 nuclear translocation was not detected by Western blot analysis or confocal microscopy in anti-RANKL-treated BMMs in the presence of sRANKL compared with control IgG (FIG. 13B, 13C).

isolated spleen cells = assay: Th1/Th2 cytokine secretion of isolated spleen cells; type: cell-based, mouse; settings: culture supernatant of Sham and IM splenocytes stimulated with sRANKL or mRANKL-MT3
Text: To determine whether mRANKL-MT3 immunization influences Th1 and Th2 cytokine production, we evaluated the effects of mRANKL-MT3 on IL-4 and IL-10 secretion, which are markers for Th2 responses, and IFN-γ, a marker for Th1 responses, in the culture supernatant of isolated spleen cells stimulated with sRANKL or mRANKL-MT3 (FIG. 8C).

[6] = wtRANKL-injected mice vs mtRANKL-immunized mice with wtRANKL injection

| Molecule | number of TRAP-positive multinuclear osteoclasts / osteoclast differentiation [1] | bone volume and percentage of bone volume (wtRANKL-induced mouse; compared with PBS-treated mice) | BMD of tibias (wtRANKL-induced mouse; [6]) [mg/mL] | trabecular bone architecture of proximal tibias (micro-CT) (wtRANKL-induced mouse; [6]) | F-actin ring formation (BMMs [2]) | resorption pits (BMMs [3]) | BMD, bone volume (BV), percentage (%) of bone volume, and trabecular thickness (BALB/c mice) | trabecular bone by Micro-CT (osteoporosis) (BALB/c mice) | GSK-3 phosphorylation (RANK and LGR4 signaling [4]) | MAPK, AKT, and NF-κB p65 phosphorylation (RANK and LGR4 signaling [4]) | level of RANKL in the blood (ELISA) (RANKL) | trabecular bone architecture of VOI from the distal femur (micro-CT) (sRANKL-induced mice; sRANKL-induced mice) | BMD, BV/TV, and Tb.N. values (sRANKL-induced mice; sRANKL-induced mice, quantitative micro-CT) | bone histomorphometric analysis and TRAP staining of femur (sRANKL-induced mice; sRANKL-treated mice) | circulating RANKL and CTX-1 levels (sRANKL-induced mice; sRANKL-treated mice sera) | MAPK, AKT, src, and GSK-3β phosphorylation (RANK and LGR4 signaling [5]) | IFN-γ levels (isolated spleen cells) | IL-4 and IL-10 secretion (isolated spleen cells) |
| --- | --- | --- | --- | --- | --- | --- | --- | --- | --- | --- | --- | --- | --- | --- | --- | --- | --- | --- |
| wtRANKL: wild-type RANKL (mouse; purified, or from Amgen in Example 2) (protein, UniProt O35235 139-316, looked up) Tumor necrosis factor ligand …: FSGAPAMMEGSWLDVAQRGKPEAQPFAHLTINAASIPSGSHKVTLSSWYHDRGWAKISNMTLSNGKLRVNQDGFYYLYANICFRHHETSGSVPTDYLQLMVYVVKTSIKIPSSHNLMKGGSTKNWSGNSEFHFYSINVGGFFKLRAGEEISIQVSNPSLLDPDQDATYFGAFKVQDID | significantly higher; also recorded: increased the number of TRAP-positive multinucleated cells | decreased | 738.0 ± 19.1 | fenestrated trabecular bone and thinner rods forming the trabecular bone | a ring of intracellular F-actin filaments in the sealing zone | numerous resorption pits | remarkably reduced | mild osteoporosis was observed | induced | induced | increased |  |  |  |  |  |  |  |
| sRANKL: soluble RANKL; R&D Systems (protein) FSGAPAMMEGSWLDVAQRGKPEAQPFAHLTINAASIPSGSHKVTLSSWYHDRGWAKISNMTLSNGKLRVNQDGFYYLYANICFRHHETSGSVPTDYLQLMVYVVKTSIKIPSSHNLMKGGSTKNWSGNSEFHFYSINVGGFFKLRAGEEISIQVSNPSLLDPDQDATYFGAFKVQDID |  |  |  |  |  |  |  |  |  |  |  | mild osteoporosis | low | an increased number of TRAPpositive osteoclasts | higher | induced | no significant differences | significantly increased |
